Measured values as given in PMC10611921, “Assessing the dynamics and macromolecular interactions of the intrinsically disordered protein YY1” (Bioscience Reports, 2023).

How the values were obtained:
[1] = target: T1, Yin Yang 1 (YY1), full-length, N-terminal hexahistidine tag (UniProt P25490 1-414, NTA ATTO 550 on the N-terminal hexahistidine tag (the labelled copy in the anisotropy assays)); assay: fluorescence polarisation; fluorescence anisotropy; unlabelled FOXP2 FHD titrated into 0.2 μM YY1 labelled with NTA ATTO 550; 300 mM NaCl, 10 mM HEPES pH 7.5, 20°C; single site model, apparent KD; settings: both partners purified
T1 construct: YY1 (Yin Yang 1), full-length construct; A heterogeneous mixture of oligomers in solution; In the anisotropy assays 0.2 μM YY1 carried NTA ATTO 550 on the His tag; the titrated YY1 was unlabelled; also called Ying Yang 1; source: T7 cells (Genscript), pET-11A plasmid, purified (IMAC on cobalt, size exclusion chromatography); not shown: His6, N-terminal, kept
T1 sequence (P25490 whole entry): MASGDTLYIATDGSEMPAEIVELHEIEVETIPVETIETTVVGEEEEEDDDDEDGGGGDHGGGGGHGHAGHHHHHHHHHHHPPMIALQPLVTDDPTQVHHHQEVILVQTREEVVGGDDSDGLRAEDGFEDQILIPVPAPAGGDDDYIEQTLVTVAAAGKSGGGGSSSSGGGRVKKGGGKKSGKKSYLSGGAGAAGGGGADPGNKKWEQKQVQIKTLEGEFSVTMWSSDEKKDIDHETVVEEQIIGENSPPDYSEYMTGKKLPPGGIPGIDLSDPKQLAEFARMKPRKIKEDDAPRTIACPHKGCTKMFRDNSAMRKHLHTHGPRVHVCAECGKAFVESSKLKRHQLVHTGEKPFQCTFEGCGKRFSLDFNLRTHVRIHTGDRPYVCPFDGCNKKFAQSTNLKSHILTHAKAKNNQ

[2] = target: T1, Yin Yang 1 (YY1), full-length, …; assay: fluorescence polarisation; fluorescence anisotropy; unlabelled FOXP2 FHD titrated into 0.2 μM YY1 labelled with NTA ATTO 550 in the presence of 10 μM background AAV P5 promoter DNA (YY1 specific); 100 mM NaCl, 10 mM HEPES pH 7.5, 20°C; settings: both partners purified
[3] = target: T1, Yin Yang 1 (YY1), full-length, …; assay: fluorescence polarisation; fluorescence anisotropy; unlabelled FOXP2 FHD titrated into 0.2 μM YY1 labelled with NTA ATTO 550; 500 mM NaCl, 10 mM HEPES pH 7.5, 20°C; single site model, apparent KD; settings: both partners purified
[4] = target: T1, Yin Yang 1 (YY1), full-length, …; assay: fluorescence polarisation; fluorescence anisotropy; unlabelled FOXP2 FHD titrated into 0.2 μM YY1 labelled with NTA ATTO 550; 100 mM NaCl, 10 mM HEPES pH 7.5, 20°C; single site model, apparent KD; settings: both partners purified
FOXP2 FHD [5] = target: T2, FOXP2 FHD (UniProt O15409 504-594); assay: EMSA; control gel; no specific binding; Anisotropy: 10 mM HEPES pH 7.5, 100 mM NaCl, 20 C; EMSA: 0.5 uM DNA, 20% (v/v) of binding buffer (10 mM HEPES pH 7.5, 1 mM MgCl2, 100 mM KCl, 10% glycerol, 0.1); settings: protein: recombinant; tags: His6 removed with thrombin
T2 sequence: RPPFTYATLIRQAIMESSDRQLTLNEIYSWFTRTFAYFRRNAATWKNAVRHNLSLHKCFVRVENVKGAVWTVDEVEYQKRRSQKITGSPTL

[6] = target: YY1 labelled with NTA ATTO 550 (UniProt P25490 1-414); assay: fluorescence anisotropy; apparent KD; 0.2 uM labelled YY1, DNA titrated; 100 mM NaCl; Anisotropy: 10 mM HEPES pH 7.5, 100 mM NaCl, 20 C; EMSA: 0.5 uM DNA, 20% (v/v) of binding buffer (10 mM HEPES pH 7.5, 1 mM MgCl2, 100 mM KCl, 10% glycerol, 0.1); settings: protein: recombinant; tags: N-terminal His6 (NTA ATTO 550 label)
YY1 labelled with NTA ATTO 550, sequence (P25490 whole entry): as the sequence (P25490 whole entry) above

FOXP2 FHD [7] = target: T2, FOXP2 FHD; assay: EMSA; single complex, no YY1; Anisotropy: 10 mM HEPES pH 7.5, 100 mM NaCl, 20 C; EMSA: 0.5 uM DNA, 20% (v/v) of binding buffer (10 mM HEPES pH 7.5, 1 mM MgCl2, 100 mM KCl, 10% glycerol, 0.1); settings: protein: recombinant; tags: His6 removed with thrombin

B1: FOXP2 forkhead domain (FHD) (domain or fragment, UniProt O15409 504-594, looked up)
chain: RPPFTYATLIRQAIMESSDRQLTLNEIYSWFTRTFAYFRRNAATWKNAVRHNLSLHKCFVRVENVKGAVWTVDEVEYQKRRSQKITGSPTL
notes: also called FOXP2 FHD; forkhead box P2 forkhead domain; source: T7 cells (Genscript), pET-11A plasmid, purified (IMAC on nickel; His-tag removed with thrombin, benzamidine and HiTrap columns); not shown: His6, N-terminal, cleaved
- Kd [1]: ~28 µM
- Kd [2]: 58 ± 6 µM
- Kd [3]: ~67 µM
- Kd [4]: ~73 µM

B2: AAV P5 DNA (dsDNA)
DNA 1: AGGGTCTCCATTTTGAAGCG
DNA 2: CGCTTCAAAATGGAGACCCT
- binding result (FOXP2 FHD [5]): no binding
- Kd [6]: 3.7 ± 0.4 µM

B3: CNTNAP2 DNA (dsDNA)
DNA 1: TTTGATTGTTTACTTTGTTC
DNA 2: GAACAAAGTAAACAATCAAA
- binding result (FOXP2 FHD [7]): binds
